Experimental data taken from PMC11982978 (2025).
Square brackets hold non-standard residues; d marks the D form. Ends that are not written are not given here.

Molecular target: Active phosphorylated His6-tagged ERK2 WT (rat (p-0033 says mouse), UniProt P63086 3-358, phosphorylated (active form; sites not given))

IC50: 92 µM
Binder: [dL][dC][dA][dR][dR]G[dL][dY][dC][dL][dS][dL][dD][dH] (cysteine pairing not given here) [FAAP100 D-peptide]
